This test deals with CCR7 receptor (human (endogenous in NKL3 and MDA-MB-231)) (UniProt P32248).
UniProt P32248, sequence (P32248 25-378): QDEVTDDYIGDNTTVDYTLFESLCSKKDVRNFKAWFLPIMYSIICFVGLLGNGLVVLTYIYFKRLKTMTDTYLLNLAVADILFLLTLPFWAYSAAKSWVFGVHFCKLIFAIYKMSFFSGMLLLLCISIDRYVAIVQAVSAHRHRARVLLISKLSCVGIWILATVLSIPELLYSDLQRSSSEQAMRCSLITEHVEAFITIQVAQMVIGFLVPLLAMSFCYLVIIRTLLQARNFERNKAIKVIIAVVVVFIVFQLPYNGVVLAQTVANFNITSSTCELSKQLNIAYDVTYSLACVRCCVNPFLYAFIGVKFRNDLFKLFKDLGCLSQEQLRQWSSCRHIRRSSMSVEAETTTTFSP

With “recombinant human CCL21 (from UniProt O00585 24-134) (ligand)”, the adhesion under flow of NKL3 cells to HPLNEC.B3 endothelial cells treated with CCL21, hypoxia; total inhibition by anti-CCR7 neutralizing antibodies came to 2.5 fold.

(Values after PMC5458255.)
